This assay deals with T1, biotinylated CD3 epsilon:delta heterodimer protein (Amsbio AMS.CDD-H52WO) (Homo sapiens (Human), UniProt P07766 23-126; P04234 22-105).
T1 construct: also called CD3 heterodimer
The experiment in a line: BLI (Octet), CD3 on SA sensor, Fab analyte.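 Also: biolayer interferometry with biotinylated CD3 epsilon:delta captured on streptavidin sensors, Fab analyte at several concentrations up to 300 nM, 100 s association then 300 s dissociation.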

Kd, koff and kon data for 11 molecules are collected here from US20230056252A1 (Gilead, published 2023).

Where a chain is given by its changes, count along the chain named.

Protocol: The CD3 binding kinetics of the purified huSP34 Fabs were determined using OctetRed384 (Pall ForteBio, CA) biolayer interferometry (BLI). […] Streptavidin (SA) coated biosensors tips (Pall ForteBio, CA) were used to capture biotinylated CD3 epsilon: delta heterodimer and typical immobilization levels captured on the SA sensors were 1 nm which approximately translates to 300 ng/ml of captured protein. For kinetic measurements biosensors were first pre-wetted with assay buffer for 10 minutes to remove protective sucrose coating followed by the recommended regeneration conditions for standardization of the biosensor surface for the experiment. In order to load the biosensors with antigen, 300 ng/ml of biotinylated CD3 epsilon: delta heterodimer protein (Amsbio AMS.CDD-H52WO) was immobilized on the SA sensor for 900 seconds. The CD3 loaded biosensors were then blocked with 20 ug/ml biocytin (sigma) for 200 seconds and then dipped into assay buffer containing wells for 200 seconds to remove any non-specific protein or unbound CD3 heterodimer.
CD3 loaded and biocytin blocked biosensors were then transferred into fresh assay buffer for 200 seconds to collect a baseline read. Kinetic measurements for anti-CD3 Fab and bispecific antibody binding were performed by dipping the CD3-coated biosensors into wells containing multiple concentrations of Fab or Ab (0-300 nM) for 100 seconds followed by a 300 second dissociation time by transferring the biosensors into assay buffer containing wells. The CD3 loaded sensors were then regenerated for the next kinetic measurement. Biosensors were generated by removing bound Fabs or Ab from immobilized CD3 on SA biosensors. Regeneration conditions used consisted of 3 cycles of 5 seconds of dipping the biosensors in Regeneration Buffer (10 mM Glycine HCl pH 1.5) followed by Assay Buffer (10 mM sodium phosphate pH 7.4, 140 mM Sodium Chloride, 0.005% Tween20 with 0.2% BSA).

B1: mSP34 Fab-HF (Fab, V domains shown)
VH: EVKLLESGGGLVQPKGSLKLSCAASGFTFNTYAMNWVRQAPGKGLEWVARIRSKYNNYATYYADSVKDRFTISRDDSQSILYLQMNNLKTEDTAMYYCVRHGNFGNSYVSWFAYWGQGTLVTVSA
VL: QAVVTQESALTTSPGETVTLTCRSSTGAVTTSNYANWVQEKPDHLFTGLIGGTNKRAPGVPARFSGSLIGDKAALTITGAQTEDEAIYFCALWYSNLWVFGGGTKLTVLG
notes: also called mSP34 chimeric Fab; mSP34 human chimeric Fab
In general, Kd refers to a measure of binding affinity in units of concentration. Lower therefore signals higher affinity. In general, koff refers to a measure of how fast the partners let go of each other. The kon is a measure of how fast the partners come together. Low values mean slower complex formation, high ones faster complex formation. In turn, B1 showed a Kd of 9.6 nM, a koff of 0.0025 s⁻¹ and a kon of 262000 M⁻¹ s⁻¹.

B2: huSP34.2.1 Fab-HF (Fab, V domains shown)
VH: EVQLVESGGGLVQPGGSLRLSCAASGFTFSTYAMNWVRQAPGKGLEWVGRIRSKYNNYATYYAASVKGRFTISRDDSKNSLYLQMNSLKTEDTAMYYCVRHGNFGNSYVSWFAVWGQGTLVTVSS
VL: QAVVTQEPSLTVSPGGTVTLTCRSSTGAVTTSNYANWVQQKPGQAPRGLIGGTNKRAPWTPARFSGSLIGDKAALTLSGAQPEDEAEYYCALWYSNLWVFGGGTKLTVL
notes: also called HC2+LC1
Turning to B2, binding was put at a Kd of 24.6 nM, the koff turned out to be 0.00596 s⁻¹ and the kon turned out to be 246000 M⁻¹ s⁻¹.

B3: huSP34.3.6 Fab-HF (Fab, V domains shown)
VH: B2 VH with S30N, A64D, K89R, M95V, N106H, V114Y
VL: QAVVTQPPSLTVSPGGTVTLTCGSSTGAVTTGHYANWVQQKPGQAPRGLIGGTSNRAPGVPARFSGSLSGGKAALTISGAQPEDEAEYYCALWYSARWVFGGGTKLTVL
notes: also called HC3+LC6
The molecule B3 had a Kd of 18.9 nM, a koff of 0.00482 s⁻¹ and a kon of 266000 M⁻¹ s⁻¹.

B4: huSP34.2.5 Fab-HF (Fab, V domains shown)
VH: B2 VH
VL: B3 VL with P7E, G59W, V60T, S69L, I77L
notes: also called HC2+LC5
B4 had a Kd of 162 nM, a koff of 0.0408 s⁻¹ and a kon of 251000 M⁻¹ s⁻¹.

B5: huSP34.2.6 Fab-HF (Fab, V domains shown)
VH: B2 VH
VL: B3 VL
notes: also called HC2+LC6
In turn, B5 had a Kd of 30.6 nM, a koff of 0.0107 s⁻¹ and a kon of 351000 M⁻¹ s⁻¹.

B6: huSP34.2.2 Fab-HF (Fab, V domains shown)
VH: B2 VH
VL: B2 VL with R23G, N54S, K55N, I69L, D71G
notes: also called HC2+LC2
B6 had a Kd of 26.4 nM, a koff of 0.0141 s⁻¹ and a kon of 609000 M⁻¹ s⁻¹.

B7: huSP34.3.1 Fab-HF (Fab, V domains shown)
VH: B2 VH with S30N, A64D, K89R, M95V, N106H, V114Y
VL: B2 VL
notes: also called HC3+LC1
The molecule B7 gave a Kd of 14.7 nM, a koff of 0.00366 s⁻¹ and a kon of 252000 M⁻¹ s⁻¹.

B8: huSP34.3.2 Fab-HF (Fab, V domains shown)
VH: B2 VH with S30N, A64D, K89R, M95V, N106H, V114Y
VL: B2 VL with R23G, N54S, K55N, I69L, D71G
notes: also called HC3+LC2
With B8, binding was characterised by a dissociation constant (Kd) of 25.4 nM, the koff came to 0.00952 s⁻¹ and the kon is 381000 M⁻¹ s⁻¹.

B9: huSP34.3.5 Fab-HF (Fab, V domains shown)
VH: B2 VH with S30N, A64D, K89R, M95V, N106H, V114Y
VL: B3 VL with P7E, G59W, V60T, S69L, I77L
notes: also called HC3+LC5
Molecule B9 yielded a Kd of 68.5 nM, a dissociation rate constant (koff) of 0.0177 s⁻¹ and a kon of 260000 M⁻¹ s⁻¹.

B10: huSP34.2.4 Fab-HF (Fab, V domains shown)
VH: B2 VH
VL: B2 VL with R23G, N33H, N54S, I69L, D71G, N96A
notes: also called HC2+LC4
Regarding B10, the affinity, expressed as Kd, was 99.4 nM; the koff is 0.0335 s⁻¹; the kon came to 398000 M⁻¹ s⁻¹.

B11: huSP34.3.4 Fab-HF (Fab, V domains shown)
VH: B2 VH with S30N, A64D, K89R, M95V, N106H, V114Y
VL: B2 VL with R23G, N33H, N54S, I69L, D71G, N96A
notes: also called HC3+LC4
Molecule B11 yielded a Kd of 85.8 nM, a koff of 0.0246 s⁻¹ and an on-rate constant (kon) of 287000 M⁻¹ s⁻¹.
